One experiment addresses T1, Mcl-1, Q07820.
T1 chain: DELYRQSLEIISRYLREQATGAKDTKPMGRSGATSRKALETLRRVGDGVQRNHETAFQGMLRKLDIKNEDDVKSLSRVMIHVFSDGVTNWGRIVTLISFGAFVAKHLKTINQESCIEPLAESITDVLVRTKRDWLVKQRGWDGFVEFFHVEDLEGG
Description: peptide SPOT array, c-Myc-tagged receptor at 1 uM or 100 nM, anti-c-Myc-Cy3.

The next experiment deals with Bcl-xL, Q07817. The experiment is described as above.
Chain of Bcl-xL, Q07817 (Q07817 1-209): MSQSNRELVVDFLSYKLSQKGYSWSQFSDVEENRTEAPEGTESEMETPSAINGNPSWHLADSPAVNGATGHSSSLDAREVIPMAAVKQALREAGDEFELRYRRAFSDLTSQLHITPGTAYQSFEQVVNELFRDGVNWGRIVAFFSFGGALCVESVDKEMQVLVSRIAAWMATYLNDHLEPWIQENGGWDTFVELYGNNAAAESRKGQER

B1: GLOD4 (peptide)
chain: VILADPDGHEICFVLDEAFRELSKMD
B1: the SPOT signal as a fraction of Bim BH3's signal on the same receptor and array in the experiment with Mcl-1, Q07820 was determined as 0.02; with Bcl-xL, Q07817, 0.02.

B2: NEDD9 (peptide)
chain: SKFVILSAHKLVFILDTLTRQVTAQD
For the molecule B2, the SPOT signal as a fraction of Bim BH3's signal on the same receptor and array with Mcl-1, Q07820 came out at 0.04; with Bcl-xL, Q07817, 0.06.

B3: SCAP (peptide)
chain: IQQDLGCGASDGVISDNLLVTGGQGC
For the molecule B3, the SPOT signal as a fraction of Bim BH3's signal on the same receptor and array worked out at 0.01 with Mcl-1, Q07820 and 0.01 with Bcl-xL, Q07817.

B4: PKD2L1 (peptide)
chain: NKTMTQLSSTLARCLKDILGFAVMFF
As for B4, the SPOT signal as a fraction of Bim BH3's signal on the same receptor and array in the experiment with Mcl-1, Q07820 was 0.12; with Bcl-xL, Q07817 it was 0.19.

B5: HIRA (peptide)
chain: GLTWDPVGKYIASQLDDRSLKVWRTL
Turning to B5, the SPOT signal as a fraction of Bim BH3's signal on the same receptor and array with Mcl-1, Q07820 was determined as 0.55; with Bcl-xL, Q07817, 0.86.

B6: MAPKAPK2 (peptide)
chain: AFTEREASEIDKSIGEAIQYLHSINI
With B6, the SPOT signal as a fraction of Bim BH3's signal on the same receptor and array was 0.02 in the experiment with Mcl-1, Q07820 and 0.02 in the experiment with Bcl-xL, Q07817.

B7: DIRC2 (peptide)
chain: IVGGCVVGIADARFADFIRGMLKLIL
As to B7, the SPOT signal as a fraction of Bim BH3's signal on the same receptor and array with Mcl-1, Q07820 is 0.14; with Bcl-xL, Q07817, 0.15.

B8: TIGD7 (peptide)
chain: SAGVPVRGVELQAALERFARCFGRTD
In the case of B8, the SPOT signal as a fraction of Bim BH3's signal on the same receptor and array with Mcl-1, Q07820 turned out to be 0.05; with Bcl-xL, Q07817 it was 0.04.

B9: DDX7 (peptide)
chain: GLFSATSGVDLKYVADTFGQEVRPVS
For B9, the SPOT signal as a fraction of Bim BH3's signal on the same receptor and array with Mcl-1, Q07820 is 0.02; with Bcl-xL, Q07817, 0.02.

B10: DDX7 (peptide)
chain: GLFSATSGVDLKYVLDTFGQEVRPVS
Regarding B10, the SPOT signal as a fraction of Bim BH3's signal on the same receptor and array with Mcl-1, Q07820 is 0.02; with Bcl-xL, Q07817 it was 0.02.

B11: PRKDC (peptide)
chain: SHALICISHWDLGIGDRHLNNFMVAM
B11: the SPOT signal as a fraction of Bim BH3's signal on the same receptor and array with Mcl-1, Q07820 was 0.02; in the experiment with Bcl-xL, Q07817 it was 0.02.

B12: SORT1 (peptide)
chain: VFDDLRGSVSLSWVGDSTGVILVLTT
B12: the SPOT signal as a fraction of Bim BH3's signal on the same receptor and array was 0.01 in the experiment with Mcl-1, Q07820 and 0.02 with Bcl-xL, Q07817.

B13: DBC1 (peptide)
chain: ISDVQVFGYSDRFNADLLRSAVQQVN
With B13, the SPOT signal as a fraction of Bim BH3's signal on the same receptor and array in the experiment with Mcl-1, Q07820 came to 0.02; with Bcl-xL, Q07817, 0.02.

B14: PRPSAP1 (peptide)
chain: ITVVGDVGGRIAIILDDIIDDVESFV
For the molecule B14, the SPOT signal as a fraction of Bim BH3's signal on the same receptor and array turned out to be 0.02 with Mcl-1, Q07820 and 0.02 with Bcl-xL, Q07817.

B15: BAT3 (peptide)
chain: QRLINLVGESLRLLLNTFVALSDLRC
On to B15, for which the SPOT signal as a fraction of Bim BH3's signal on the same receptor and array was found to be 0.03 in the experiment with Mcl-1, Q07820 and 0.08 with Bcl-xL, Q07817.

B16: DCAF8 (peptide)
chain: TLHFNQRGTWDASGSDDLKVVVWDWV
With B16, the SPOT signal as a fraction of Bim BH3's signal on the same receptor and array with Mcl-1, Q07820 was found to be 0.02; in the experiment with Bcl-xL, Q07817, 0.02.

B17: SORT1 (peptide)
chain: VFDDLRGSVSLSWVLDSTGVILVLTT
With B17, the SPOT signal as a fraction of Bim BH3's signal on the same receptor and array turned out to be 0.02 with Mcl-1, Q07820 and 0.01 with Bcl-xL, Q07817.

B18: HDLBP (peptide)
chain: RHFVIRRGQVDREIAEEYGGVMVSFP
For B18, the SPOT signal as a fraction of Bim BH3's signal on the same receptor and array in the experiment with Mcl-1, Q07820 is 0.03; with Bcl-xL, Q07817, 0.02.

B19: SLC40A1 (peptide)
chain: AKFLLYLGHSLSTWLDRMWHFAVSVF
Consider B19, for which the SPOT signal as a fraction of Bim BH3's signal on the same receptor and array with Mcl-1, Q07820 came out at 0.07; in the experiment with Bcl-xL, Q07817, 0.12.

B20: CAD (peptide)
chain: LRVSTKIGSCDKSVGEVMGIGRSFEE
Regarding B20, the SPOT signal as a fraction of Bim BH3's signal on the same receptor and array with Mcl-1, Q07820 came to 0.02; with Bcl-xL, Q07817 it was 0.02.

B21: PRPSAP1 (peptide)
chain: ITVVGDVGGRIAIIVDDIIDDVESFV
For B21, the SPOT signal as a fraction of Bim BH3's signal on the same receptor and array with Mcl-1, Q07820 turned out to be 0.02; with Bcl-xL, Q07817, 0.02.

B22: KIF13A (peptide)
chain: RIEMWISILEDNELGEYAAVELHQAK
With B22, the SPOT signal as a fraction of Bim BH3's signal on the same receptor and array with Mcl-1, Q07820 was found to be 0.02; in the experiment with Bcl-xL, Q07817, 0.03.

B23: ATAD2 (peptide)
chain: SQGDKRVAFFMRKGLDCLSKWVGESE
Consider B23, for which the SPOT signal as a fraction of Bim BH3's signal on the same receptor and array with Mcl-1, Q07820 amounted to 0.03; with Bcl-xL, Q07817, 0.06.

B24: GNB5 (peptide)
chain: SVRYYPSGDAFASGLDDATCRLYDLR
As for B24, the SPOT signal as a fraction of Bim BH3's signal on the same receptor and array with Mcl-1, Q07820 came to 0.02; with Bcl-xL, Q07817, 0.02.

B25: FAM115A (peptide)
chain: RGAMLSLATGLAHSLSDLSLLVPEIE
For B25, the SPOT signal as a fraction of Bim BH3's signal on the same receptor and array with Mcl-1, Q07820 was 0.05; with Bcl-xL, Q07817, 0.06.

B26: ADCY10 (peptide)
chain: EKVLIFGGDILKFALDALLALWRVER
Turning to B26, the SPOT signal as a fraction of Bim BH3's signal on the same receptor and array with Mcl-1, Q07820 stood at 0.03; in the experiment with Bcl-xL, Q07817, 0.04.

B27: STRN (peptide)
chain: LGLGELAGLTDANEADSLTYDIANNK
Regarding B27, the SPOT signal as a fraction of Bim BH3's signal on the same receptor and array with Mcl-1, Q07820 is 0.01; with Bcl-xL, Q07817, 0.01.

B28: TRO (peptide)
chain: SALETQVAAADQALADDYLAQLSLEP
In the case of B28, the SPOT signal as a fraction of Bim BH3's signal on the same receptor and array amounted to 0.01 with Mcl-1, Q07820 and 0.01 with Bcl-xL, Q07817.

B29: MSH3 (peptide)
chain: AVLCVECGYKYRFFGEDAEIAARELN
With B29, the SPOT signal as a fraction of Bim BH3's signal on the same receptor and array with Mcl-1, Q07820 is 0.01; with Bcl-xL, Q07817, 0.01.

B30: SEH1L (peptide)
chain: RVSWNITGTVDASSGDDGCVRLWKAN
With B30, the SPOT signal as a fraction of Bim BH3's signal on the same receptor and array was determined as 0.03 with Mcl-1, Q07820 and 0.07 with Bcl-xL, Q07817.

B31: HAP1 (peptide)
chain: VEQFSEASQQMAELLEVLVLRLENYE
B31: the SPOT signal as a fraction of Bim BH3's signal on the same receptor and array with Mcl-1, Q07820 was found to be 0.02; in the experiment with Bcl-xL, Q07817, 0.02.

B32: POLQ (peptide)
chain: DLLGMVVVDEDHMLGDSHRGYLLELL
Turning to B32, the SPOT signal as a fraction of Bim BH3's signal on the same receptor and array with Mcl-1, Q07820 worked out at 0.02; with Bcl-xL, Q07817, 0.02.

B33: CLTCL1 (peptide)
chain: FRFAQLCGLHIVIHADELEELMCYYQ
Turning to B33, the SPOT signal as a fraction of Bim BH3's signal on the same receptor and array turned out to be 0.02 with Mcl-1, Q07820 and 0.02 in the experiment with Bcl-xL, Q07817.

B34: ITPR3 (peptide)
chain: KKCQDMIMTEDTNAGDDVVVFYNDKA
Regarding B34, the SPOT signal as a fraction of Bim BH3's signal on the same receptor and array with Mcl-1, Q07820 worked out at 0.01; with Bcl-xL, Q07817, 0.02.

B35: SPOCK2 (peptide)
chain: GKPETCTGQDDADLGDRLRDWFQLLH
Take B35: the SPOT signal as a fraction of Bim BH3's signal on the same receptor and array in the experiment with Mcl-1, Q07820 was 0.01; in the experiment with Bcl-xL, Q07817, 0.01.

B36: SOS1 (peptide)
chain: QLSKPGAALYLQSIGEGFKEAVQYVL
With B36, the SPOT signal as a fraction of Bim BH3's signal on the same receptor and array with Mcl-1, Q07820 turned out to be 0.02; with Bcl-xL, Q07817 it was 0.02.

B37: SCAP (peptide)
chain: IQQDLGCGASLGVILDNLLVTGGQGC
B37: the SPOT signal as a fraction of Bim BH3's signal on the same receptor and array was 0.01 with Mcl-1, Q07820 and 0.01 with Bcl-xL, Q07817.
